Source: patent US12065507B2 (priority 2020, dated 2024)
Like-named read-outs stand apart in the source and are kept apart here.

Legend:
[1] = collected from the references cited; read-out: Activities (Kd), Morphine; cited from earlier work
[2] = cited from earlier work
[3] = mice; cited from earlier work
[4] = read-out: Kd, morphine; 2 nM [H^3]-morphine, room temperature, 60 minutes, pH 7.4
Description: The binding constant of the antibody with [H^3]-morphine were tested using liquid scintillation counting. Briefly, 2 nM [H^3]-morphine was incubated with different concentration of antibody at room temperature for 60 minutes. The total volume of mixture was 100 and pH was 7.4.

[5] = Competitive binding of [H^3]-morphine against naloxone
[6] = Competitive binding of [H^3]-morphine against oxycodone; settings: read-out: Kd, oxycodone; from IC50 against 2 nM [H^3]-morphine
[7] = Competitive binding of [H^3]-morphine against meperidine; settings: read-out: Kd, meperidine; from IC50 against 2 nM [H^3]-morphine
[8] = Competitive binding of [H^3]-morphine against naltrexone
[9] = collected from the references cited, read-out: Activities (Kd), 6-MAM
[10] = 10 μM competing drug, 60 nM antibody, 2 nM [H^3]-morphine

Row | Molecule | Kd [1] | Kd [2, 9] | other results
1 | Ab19 (antibody, V domains shown, Ab19 - Heavy chain; Ab19 - Light chain) VH: EVQLVESGGGLVQPGRSLRLSCAASGFSFGDYARIMVRQAPGKGLEWVSGISWDSYTTGYADSVKGRFTVSRDNAICNSLYLQMNSLRPEDTAVYYCAKAPSPRRVIIEYFDSDYWGGTSLTVSS VL: QSVLTQPPSVSGAPGQRVTISCTGSSSNIGAGYDVHWYQQLPGTAPKLLIYGNSNRPSGVPDRFSGSKSGTSASLAITGLQAEDEADYYCQSYDSSLRGVVFGGGTKLTVL | ≥ 10 µM | 0.16 µM | 
2 | Ab20: known anti-6-MAM antibody 6-MAM-102; heavy chain SEQ ID NO: 32, light chain SEQ ID NO: 58 (antibody, V domains shown, Ab20 - Heavy chain; Ab20 - Light chain) VH: EVQLVESGGGLVQPGRSLRLSCAASGFSFGDYAIHMVRQAPGKGLEWVSGISWDSYTTGYADSVKGRFTVSRDNAKNSLYLQMNSLRPEDTAVYYCAKAPSPRRVHEYFDSDYWGQGTSLTVSS VL: QSALTQPASVSGAPGQRVTMSCTGSSSNIGAGYDVHWYQQLPGTAPKLLIFGNTNRPSGVPDRFSASKSGTSASLAITGLQAEDEADYYCQSYDNSLSGVVFGGGTKLTVL | > 10 µM | 0.17 µM | 
3 | Ab21: known anti-6-MAM antibody 6-MAM-103; heavy chain SEQ ID NO: 33, light chain SEQ ID NO: 59 (antibody, V domains shown, Ab21 - Heavy chain; Ab21 - Light chain) VH: EVQLVESGGGLVQPGRSLRLSCAASGFSFGDYAIHMVRQAPGKGLEWVSGISWDSYTTGYADSVKGRFTVSRDNAICNSLYLQMNSLRPEDTAVYYCAKAPSPRRVIIEYFDSDYWGQGTSLTVSS VL: QSALTQPASVSGAPGQRVTISCTGSSSNIGAGYDVHWYQQLPGTAPKLLIYGNSNRPSGVPDRFSGSKSGTSASLAITGLQAEDEADYYCQSYDSSLSGVVFGGGTKLTVL | > 10 µM | 0.1 µM | 
4 | Ab24: known anti-6-MAM antibody 6-MAM-120; heavy chain SEQ ID NO: 36, light chain SEQ ID NO: 62 (antibody, V domains shown, Ab24 - Heavy chain; Ab24 - Light chain) VH: EVQLVESGGGLVQPGRSLRLSCAASGFTFGDYAIHMVRQAPGKGLEWVAGISWDSYTTGYADSVKGRFTVSRDNAKNSLYLQMNSLRPEDTAVYYCAICAPSPRRVIIEYFQYDYWGQGTSLTVSS VL: QSALTQPASVSGAPGQRVTISCTGSSSNIGAGYDVHWYQQLPGTAPKLLIYGNSNRPSGVPDRFSGSKSGTSASLAITGLQAEDEADYYCQSYDSSLSGVVFGGGTKLTVL | > 10 µM | 0.25 µM | 
5 | Ab17: known 6-MAM-specific mAb 6-MAM-214; heavy chain SEQ ID NO: 29, light chain SEQ ID NO: 55 (antibody, V domains shown, Ab17 - Heavy chain; Ab17 - Light chain) VH: EVQLVESGGGLVQPGRSLRLSCAASGFSFGDYAIHMVRQAPGKGLEWVSGISWDSYTTGYADSVKGRFTVSRDNAKNSLYLQMNSLRPEDTAVYYCAKAPSPRRVIIEYFDSDYWGQGTSLTVSS VL: QSALTQPASVSGAPGQTVSISCTGWSSNIGAGYDVHWYQQLPGTAPKLLISHNTNRPSGVPDRFSGSKSGTSASLAITGLQAEDEADYYCQSYDSTLGVVVEGGGTICLTVL | > 10 µM | 0.3 µM | Kd ([2]; literature value, read-out: affinity for 6-MAM): 0.3 µM; Effect on acute heroin effects [3]: able to reduce the acute heroin effects in mice
6 | Ab22: known anti-6-MAM antibody 6-MAM-108; heavy chain SEQ ID NO: 34, light chain SEQ ID NO: 60 (antibody, V domains shown, Ab22 - Heavy chain; Ab22 - Light chain) VH: EVQLVESGGGLVQPGRSLRLSCAASGFSFGDYAIHMVRQAPGKGLEWVSGISWDSYTTGYADSVKGRFTVSRDNAKNSLYLQMNSLRPEDTAVYYCAKAPSPRRVIIEYFDSDYWGQGTSLTVSS VL: QSVLTQPPSVSGAPGQRVTISCTGSSSNIGAGYDVHWYQQLPGTAPKLLWGNSNRPSGVPDRFSGSKSGTSASLAITGLQAEDEADYYCQSYDSSLSGVVFGGGTKLTVL | > 10 µM | 0.17 µM | 
7 | UK6Mab02: fully humanized antibody (H1L3) designed from Ab13, with human IgG1 heavy and kappa light constant regions (antibody, V domains shown, H1 (UK6Mab02) Heavy Chain; L3 (UK6Mab02) - Light chain) VH: EVQLVQSGAEVKKPGASVKISCKASGYTFTSYWIEWVKQAPGKGLEWIGEINPSGGSTIYAEKFQGRATFTADTSTSTAYMELSSLRSEDTAVYYCARWVLDYYGMDYWGQGTSLTVSS VL: QAVVTQEPSLTVSPGGTVTLTCGSSTGAVTSGNYANWVQQKPGQAFRGLIGGTNTRSSGVPDRFSGSLLGGKAALTISGAQPEDEAEYYCALWYSNKLVFGGGTKLTVL |  |  | Kd [4]: 0.127 µM; Binding with naloxone in initial screening [5, 10]: did not show significant binding affinities; Kd ([5]; read-out: Kd, naloxone, from competition with 2 nM [H^3]-morphine): > 10 µM; Kd [6]: 6.91 µM; Kd [7]: 15.7 µM; Binding with naltrexone in initial screening [8, 10]: did not show significant binding affinities; Kd ([8]; read-out: Kd, naltrexone, from competition with 2 nM [H^3]-morphine): > 10 µM
